Experimental data from US20110263454A1, “Methods of Identifying Functional Characteristics of Promoters, Transcription Modifying Proteins and Transcription Modulating Agents” (Salk Institute for Biological Studies, priority 2008, published 2011).

B1: SHP: Small Heterodimer Partner (NR0B2), cDNA driver (protein, UniProt Q15466 1-257, looked up)
Nuclear receptor subfamily 0 …: MSTSQPGACPCQGAASRPAILYALLSSSLKAVPRPRSRCLCRQHRPVQLCAPHRTCREALDVLAKTVAFLRNLPSFWQLPPQDQRRLLQGCWGPLFLLGLAQDAVTFEVAEAPVPSILKKILLEEPSSSGGSGQLPDRPQPSLAAVQWLQCCLESFWSLELSPKEYACLKGTILFNPDVPGLQAASHIGHLQQEAHWVLCEVLEPWCPAAQGRLTRVLLTASTLKSIPTSLLGDLFFRPIIGDVDIAGLLGDMLLLR
B2: DAX-1: DAX1 (NR0B1), cDNA driver (protein, UniProt P51843 1-470, looked up)
Nuclear receptor subfamily 0 …: MAGENHQWQGSILYNMLMSAKQTRAAPEAPETRLVDQCWGCSCGDEPGVGREGLLGGRNVALLYRCCFCGKDHPRQGSILYSMLTSAKQTYAAPKAPEATLGPCWGCSCGSDPGVGRAGLPGGRPVALLYRCCFCGEDHPRQGSILYSLLTSSKQTHVAPAAPEARPGGAWWDRSYFAQRPGGKEALPGGRATALLYRCCFCGEDHPQQGSTLYCVPTSTNQAQAAPEERPRAPWWDTSSGALRPVALKSPQVVCEAASAGLLKTLRFVKYLPCFQVLPLDQQLVLVRNCWASLLMLELAQDRLQFETVEVSEPSMLQKILTTRRRETGGNEPLPVPTLQHHLAPPAEARKVPSASQVQAIKCFLSKCWSLNISTKEYAYLKGTVLFNPDVPGLQCVKYIQGLQWGTQQILSEHTRMTHQGPHDRFIELNSTLFLLRFINANVIAELFFRPIIGTVSMDDMMLEMLCTKI
B3: GCNF: Germ Cell Nuclear Factor (NR6A1, GCNF1), cDNA driver (protein, UniProt Q15406 1-480, looked up)
Nuclear receptor subfamily 6 …: MERDEPPPSGGGGGGGSAGFLEPPAALPPPPRNGFCQDELAELDPGTISVSDDRAEQRTCLICGDRATGLHYGIISCEGCKGFFKRSICNKRVYRCSRDKNCVMSRKQRNRCQYCRLLKCLQMGMNRKAIREDGMPGGRNKSIGPVQISEEEIERIMSGQEFEEEANHWSNHGDSDHSSPGNRASESNQPSPGSTLSSSRSVELNGFMAFREQYMGMSVPPHYQYIPHLFSYSGHSPLLPQQARSLDPQSYSLIHQLLSAEDLEPLGTPMLIEDGYAVTQAELFALLCRLADELLFRQIAWIKKLPFFCELSIKDYTCLLSSTWQELILLSSLTVYSKQIFGELADVTAKYSPSDEELHRFSDEGMEVIERLIYLYHKFHQLKVSNEEYACMKAINFLNQDIRGLTSASQLEQLNKRYWYICQDFTEYKYTHQPNRFPDLMMCLPEIRYIAGKMVNVPLEQLPLLFKVVLHSCKTSVGKE
B4: NR4a3: NR4a3 (NR4A3; NOR1), nuclear hormone receptor cDNA driver (protein, UniProt Q92570 1-626, looked up)
Nuclear receptor subfamily 4 …: MPCVQAQYSPSPPGSSYAAQTYSSEYTTEIMNPDYTKLTMDLGSTEITATATTSLPSISTFVEGYSSNYELKPSCVYQMQRPLIKVEEGRAPSYHHHHHHHHHHHHHHQQQHQQPSIPPASSPEDEVLPSTSMYFKQSPPSTPTTPAFPPQAGALWDEALPSAPGCIAPGPLLDPPMKAVPTVAGARFPLFHFKPSPPHPPAPSPAGGHHLGYDPTAAAALSLPLGAAAAAGSQAAALESHPYGLPLAKRAAPLAFPPLGLTPSPTASSLLGESPSLPSPPSRSSSSGEGTCAVCGDNAACQHYGVRTCEGCKGFFKRTVQKNAKYVCLANKNCPVDKRRRNRCQYCRFQKCLSVGMVKEVVRTDSLKGRRGRLPSKPKSPLQQEPSQPSPPSPPICMMNALVRALTDSTPRDLDYSRYCPTDQAAAGTDAEHVQQFYNLLTASIDVSRSWAEKIPGFTDLPKEDQTLLIESAFLELFVLRLSIRSNTAEDKFVFCNGLVLHRLQCLRGFGEWLDSIKDFSLNLQSLNLDIQALACLSALSMITERHGLKEPKRVEELCNKITSSLKDHQSKGQALEPTESKVLGALVELRKICTLGLQRIFYLKLEDLVSPPSIIDKLFLDTLPF

What follows are molecules tested on mDio2 promoter (assay: NHR-promoter luciferase screen, mDio2 promoter). Conditions: Dio2; HR component without or with its ligand.
Format: cell-based, mouse
How it was run: (§1)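 CV-1 cells were co-transfected with 50 ng NHR (homodimer or NHR/RXR heterodimer), 100 ng promoter-luciferase construct and 50 ng LacZ. Luciferase was normalized to LacZ and to a no-NHR/no-ligand control.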

Row | Molecule | Luc. act., normalized to lacZ | Normalized Luc. act., normalized to control
1 | B1 | 18.4 | 1.2
2 | B2 | 18.7 | 1.2
3 | B3 | 22.7 | 1.4
4 | B4 | 14.8 | 0.9

Same assay, conditions: transcription factor +/- ligand; control = 1.00

Row | Molecule | mDio2 promoter reporter activity
5 | B1 | 1.17
6 | B2 | 1.19
7 | B3 | 1.44
8 | B4 | 0.94

The molecules below were run on hMyoD promoter (assay: NHR-promoter luciferase screen, hMyoD promoter). Conditions: MyoD promoter reporter; co-transfected HR, without or with its ligand.
Format: cell-based, human
How it was run: as §1

Row | Molecule | Luc. act., normalized to lacZ
9 | B1 | 54.0
10 | B2 | 61.3
11 | B3 | 50.5
12 | B4 | 56.1

Same assay, conditions: MyoD promoter reporter; co-transfected HR, without or with its ligand; relative to control

Row | Molecule | Normalized Luc. act., normalized to control
13 | B1 | 0.9
14 | B2 | 1.0
15 | B3 | 0.8
16 | B4 | 0.9

Same assay, conditions: hMyoD promoter-luciferase, CV-1 cells, NHR +/- ligand, control = 1.00

Row | Molecule | luciferase activity normalized to lacZ activity and to a control, hMyoD
17 | B1 | 0.85
18 | B2 | 0.97
19 | B3 | 0.80
20 | B4 | 0.89

These molecules were tested on mUCP2 promoter (assay: NHR-promoter luciferase screen, mUCP2 promoter). Conditions: mUCP2 promoter reporter; co-transfected HR, with or without its ligand.
Format: cell-based, mouse
How it was run: as §1

Row | Molecule | Luc. act., normalized to lacZ
21 | B1 | 164.1
22 | B2 | 158.6
23 | B3 | 139.9
24 | B4 | 150.1

Same assay, conditions: mUCP2 promoter reporter; co-transfected HR, with or without its ligand; relative to control

Row | Molecule | Normalized Luc. act., normalized to control
25 | B1 | 1.5
26 | B2 | 1.4
27 | B3 | 1.3
28 | B4 | 1.4

Same assay, conditions: mUCP2 promoter-luciferase, CV-1 cells, NHR +/- ligand, control = 1.00

Row | Molecule | luciferase activity normalized to lacZ activity and to a control, mUCP2
29 | B1 | 1.49
30 | B2 | 1.44
31 | B3 | 1.27
32 | B4 | 1.37

These molecules were tested on mNPY promoter (assay: NHR-promoter luciferase screen, mNPY promoter). Conditions: Table 6d; luciferase activity relative to control (control = 1.00).
Format: cell-based, mouse
How it was run: as §1

Row | Molecule | Results of assays of transcription factor (+/- ligand) with mNPY
33 | B1 | 0.81
34 | B2 | 1.02
35 | B3 | 0.64
36 | B4 | 0.72

Same assay, conditions: mNPY promoter; HR component with or without ligand

Row | Molecule | Luc. act., normalized to lacZ
37 | B1 | 68.3
38 | B2 | 86.0
39 | B3 | 53.5
40 | B4 | 60.4

Same assay, conditions: mNPY promoter; HR component with or without ligand; relative to control

Row | Molecule | Normalized Luc. act., normalized to control
41 | B1 | 0.8
42 | B2 | 1.0
43 | B3 | 0.6
44 | B4 | 0.7

The molecules below were run on MCP-1 promoter (assay: NHR-promoter luciferase screen, MCP-1 promoter). Conditions: MCP-1 promoter reporter; HR without or with its ligand; relative to control.
Format: cell-based
How it was run: as §1

Row | Molecule | Normalized Luc. act., normalized to control
45 | B1 | 1.2
46 | B2 | 1.0
47 | B3 | 0.0
48 | B4 | 0.5

Same assay, conditions: MCP-1 promoter reporter; hormone receptor (HR) without or with its ligand

Row | Molecule | Luc. act., normalized to lacZ
49 | B1 | 130.4
50 | B2 | 108.9
51 | B4 | 51.9

Same assay, conditions: transcription factor +/- ligand; control = 1.00

Row | Molecule | mMCP-1 promoter reporter activity
52 | B1 | 1.22
53 | B2 | 1.02
54 | B3 | 0.00
55 | B4 | 0.48

These molecules were tested on hPPARg2 promoter (assay: NHR-promoter luciferase screen, hPPARg2 promoter). Conditions: PPARG2 promoter; hormone receptor with or without its ligand.
Format: cell-based, human
How it was run: as §1

Row | Molecule | Luc. act., normalized to lacZ
56 | B1 | 1.9
57 | B2 | 1.9
58 | B3 | 1.4
59 | B4 | 1.1

Same assay, conditions: PPARG2 promoter; hormone receptor with or without its ligand; relative to control

Row | Molecule | Normalized Luc. act., normalized to control
60 | B1 | 0.9
61 | B2 | 0.9
62 | B3 | 0.7
63 | B4 | 0.6

Same assay, conditions: Table 6d; luciferase activity relative to control (control = 1.00)

Row | Molecule | Results of assays of transcription factor (+/- ligand) with hPPARg2
64 | B1 | 0.93
65 | B2 | 0.94
66 | B3 | 0.69
67 | B4 | 0.57
